Among the data in patent publication US20210205408A1 are hemolysis (red blood cells) after pre-incubation of PRX302 with enzymatically active PSA in aqueous buffer values, retold here.

This experiment has as its target PRX302 (modified proaerolysin in which the furin site is replaced with a PSA-specific cleavage site) (Aeromonas hydrophilia (engineered variant)) (UniProt P09167). Nature of the experiment: cell-based or functional assay.

“Prostate Specific Antigen (PSA), enzymatically active (from UniProt P07288 25-261) (enzyme)” showed a hemolysis (red blood cells) after pre-incubation of PRX302 with enzymatically active PSA in aqueous buffer of 45 % hemolysis.
